Reference: the supplement of paper PMC10724198
± gives the standard deviation of the averaged measurements.

Experiments:
Saccharomyces cerevisiae [1] = test: protein stability index of tFT-peptide fusion in wild type (PSI (0-1 scale)); higher = more stable (slower turnover); details: genetic background: wild type
Saccharomyces cerevisiae [2] = test: protein stability index of tFT-peptide fusion in deletion strain of DOA10 (PSI (0-1 scale)); higher = more stable (slower turnover)
Method: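 MPS profiling in S. cerevisiae of two library types built from selected 12-aa C-degron peptides (IN1, IN2, LN1, LN3, VN2, R1-R5, W1-W3, Atg1 and Rpa12 C-termini): saturation mutagenesis libraries and C-terminal +1 capping libraries (13 aa). Each peptide is fused to the C-terminus of a sfGFP-mCherry timer, after a GGGS linker. Cells are FACS-sorted into 8 mCherry/sfGFP bins and sequenced. PSI runs from 0 (unstable) to 1 (stable), measured once in wild type and in the das1Δ or doa10Δ background.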

Saccharomyces cerevisiae [3] = test: protein stability index of tFT-peptide fusion in deletion strain of DAS1 (PSI (0-1 scale)); higher = more stable (slower turnover)
Saccharomyces cerevisiae [4] = test: protein stability index of tFT-peptide fusion (C-terminal peptide) (PSI (0-1 scale)); higher = more stable (slower turnover)
Method: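 MPS profiling in S. cerevisiae of the tFT-X12 degron library: putative degron peptides plus stable controls, 12 aa, fused to the C-terminus of a sfGFP-mCherry timer. Cells are FACS-sorted into 8 mCherry/sfGFP bins and deep-sequenced. PSI runs from 0 (unstable) to 1 (stable). Backgrounds are wild type, das1Δ and doa10Δ at 30 °C, and wild type, das1Δ, cdc34-1 and cdc53-1 at 37 °C; 2-3 technical replicates each.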

Saccharomyces cerevisiae [5] = test: as above; details: genetic background: wild type; temperature: 30 C
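Throughout, for protein stability index of tFT-peptide fusion (C-terminal peptide): PSI is a weighted mean of sequencing reads over stability bins, variants kept only with over 10 reads, mCherry proximal and sfGFP distal, peptide attached via GGGS linker.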
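Throughout, for protein stability index of tFT-peptide fusion in deletion strain of DAS1: PSI is a weighted mean of each variant's read distribution over the sorted stability bins, computed only for variants having over 10 reads in total.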
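Throughout, for protein stability index of tFT-peptide fusion in deletion strain of DOA10: PSI per variant is the weighted mean of its sequencing read distribution over the sorted stability bins, counting only variants with over 10 reads summed across bins.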
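Throughout, for protein stability index of tFT-peptide fusion in wild type: PSI derived as read-weighted mean over the 8 sorting bins, only variants exceeding 10 total reads kept, mCherry placed adjacent to the peptide and sfGFP distal.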

| Sequence | protein stability index (Saccharomyces cerevisiae [1]) | protein stability index (Saccharomyces cerevisiae [3]) | other results |
| --- | --- | --- | --- |
| ACTLPMCPLLLR | 0.318 |  | protein stability index (Saccharomyces cerevisiae [2]): 0.678 |
| AIKLPMCPLLLR | 0.276 |  | protein stability index (Saccharomyces cerevisiae [2]): 0.652 |
| AINLPMCPLLLR | 0.243 |  | protein stability index (Saccharomyces cerevisiae [2]): 0.656 |
| AITAPMCPLLLR | 0.472 |  | protein stability index (Saccharomyces cerevisiae [2]): 0.66 |
| AITDPMCPLLLR | 0.603 |  | protein stability index (Saccharomyces cerevisiae [2]): 0.693 |
| AITEPMCPLLLR | 0.593 |  | protein stability index (Saccharomyces cerevisiae [2]): 0.648 |
| AITLPMCDLLLR | 0.639 |  | protein stability index (Saccharomyces cerevisiae [2]): 0.675 |
| AITLPMCELLLR | 0.511 |  | protein stability index (Saccharomyces cerevisiae [2]): 0.676 |
| AITLPMCFLLLR | 0.0902 |  | protein stability index (Saccharomyces cerevisiae [2]): 0.62 |
| AITLPMCKLLLR | 0.392 |  | protein stability index (Saccharomyces cerevisiae [2]): 0.663 |
| AITLPMCPKLLR | 0.643 |  | protein stability index (Saccharomyces cerevisiae [2]): 0.671 |
| PDSRNHLIKLLN | 0.125 | 0.6 |  |
| PHKRNHLIKLLN | 0.141 | 0.694 |  |
| PILAASFWRVVG | 0.145 | 0.678 |  |
| PKKRNHLIKLLN | 0.149 | 0.596 |  |
| PMKRNHLIKLLN | 0.069 | 0.569 |  |
| PRKRNHLIKLLN | 0.141 | 0.633 |  |
| PSLAAEFWRVVG | 0.168 | 0.697 |  |
| PSLAASEWRVVG | 0.535 | 0.703 |  |
| PSLAASFMRVVG | 0.531 | 0.681 |  |
| PSLAASFWAVVG | 0.601 | 0.686 |  |
| PSLAASFWHVVG | 0.46 | 0.691 |  |
| PSLAASFWQVVG | 0.465 | 0.692 |  |
| PSLAASFWRDVG | 0.645 | 0.695 |  |
| PSLAASFWRLVG | 0.135 | 0.688 |  |
| PSLAASFWRVQG | 0.155 | 0.672 |  |
| PSLAASFWRVVA | 0.131 | 0.68 |  |

| Sequence | protein stability index (Saccharomyces cerevisiae [1]) | protein stability index (Saccharomyces cerevisiae [3]) | other results |
| --- | --- | --- | --- |
| PSLAASFWRVVG | 0.146 | 0.686 | protein stability index (Saccharomyces cerevisiae [4]; genetic background: cdc34-1, temperature: 37 C): 0.595 ± 0.1; protein stability index (Saccharomyces cerevisiae [4]; genetic background: cdc53-1, temperature: 37 C): 0.749 ± 0.016; protein stability index (Saccharomyces cerevisiae [4]; genetic background: das1 deletion, temperature: 30 C): 0.694 ± 0.051; protein stability index (Saccharomyces cerevisiae [4]; genetic background: das1 deletion, temperature: 37 C): 0.7397 ± 0.0053; protein stability index (Saccharomyces cerevisiae [4]; genetic background: doa10 deletion, temperature: 30 C): 0.102 ± 0.031; protein stability index (Saccharomyces cerevisiae [4]; genetic background: wild type, temperature: 30 C): 0.109 ± 0.037; protein stability index (Saccharomyces cerevisiae [4]; genetic background: wild type, temperature: 37 C): 0.243 ± 0.0024; protein stability index (Saccharomyces cerevisiae [5]): 0.197 ± 0.013 |
| PSLAASFWRVVN | 0.133 | 0.67 |  |
| PSLAASFWRVVY | 0.636 | 0.682 |  |
| PSLAASFWTVVG | 0.62 | 0.708 |  |
| PSLAASFYRVVG | 0.625 | 0.689 |  |
| PSLAASKWRVVG | 0.138 | 0.666 |  |
| PSLAASLWRVVG | 0.133 | 0.673 |  |
| PSLAASVWRVVG | 0.162 | 0.661 |  |
| PSLAPSFWRVVG | 0.136 | 0.682 |  |
| PSLARSFWRVVG | 0.293 | 0.7 |  |
| PSNAASFWRVVG | 0.162 | 0.686 |  |
| PYKRNHLIKLLN | 0.141 | 0.6 |  |
| QRGAVGGWRLVG | 0.161 | 0.655 |  |
| RLIDPLPVQFLN | 0.121 | 0.62 |  |
| RLIHPLPVQFLN | 0.0474 | 0.616 |  |
| RLINPLPVQFLN | 0.0773 | 0.668 |  |
| RLIQILPVQFLN | 0.0377 | 0.546 |  |
| RLIQPLAVQFLN | 0.0616 | 0.6 |  |
| RLIQPLHVQFLN | 0.054 | 0.61 |  |
| RLIQPLPVFFLN | 0.0542 | 0.586 |  |
| RLIQPLPVQFLNH | 0.646 | 0.661 |  |
| RLIQPLPVQFLNN | 0.432 | 0.663 |  |
| RLIQPLPVQFLNP | 0.65 | 0.664 |  |
| RLIQPLPVQFLV | 0.0819 | 0.643 |  |
| RLIQPLPVQFLY | 0.28 | 0.682 |  |
| RLIQPLPVQFSN | 0.591 | 0.601 |  |
| RLIQPLPVQGLN | 0.659 | 0.739 |  |

| Sequence | protein stability index (Saccharomyces cerevisiae [1]) | protein stability index (Saccharomyces cerevisiae [3]) | other results |
| --- | --- | --- | --- |
| RLIQPLPVQQLN | 0.125 | 0.596 |  |
| RLIQPLPVQRLN | 0.0805 | 0.643 |  |
| RLIQPLPVRFLN | 0.0593 | 0.6 |  |
| RLIQPLQVQFLN | 0.0288 | 0.63 |  |
| RLIQPWPVQFLN | 0.0573 | 0.545 |  |
| RLIQYLPVQFLN | 0.0219 | 0.637 |  |
| RLVQPLPVQFLN | 0.0538 | 0.628 |  |
| RVVYLSCVACIN | 0.0144 | 0.0603 |  |
| TDKRNHLIKLLN | 0.12 | 0.577 |  |
| VRGAVDGWRLVG | 0.156 | 0.67 |  |
| VRGAVGAWRLVG | 0.144 | 0.704 |  |
| VRGAVGGTRLVG | 0.63 | 0.673 |  |
| VRGAVGGWDLVG | 0.664 | 0.656 |  |
| VRGAVGGWRLEG | 0.642 | 0.69 |  |
| VRGAVGGWRLIG | 0.146 | 0.674 |  |
| VRGAVGGWRLVC | 0.143 | 0.634 |  |
| VRGAVGGWRLVGG | 0.66 | 0.682 |  |
| VRGAVGGWRLVGW | 0.666 | 0.668 |  |
| VRGAVGGWRPVG | 0.667 | 0.671 |  |
| VRGAVGGWRWVG | 0.144 | 0.682 |  |
| VRGAVGGWVLVG | 0.202 | 0.659 |  |
| VRGAVGGWWLVG | 0.455 | 0.669 |  |
| VRGAVGVWRLVG | 0.16 | 0.665 |  |
| VRGIVGGWRLVG | 0.171 | 0.682 |  |
| VRGQVGGWRLVG | 0.147 | 0.677 |  |
| VRRAVGGWRLVG | 0.145 | 0.695 |  |
